The DeepSol protein solubility set

Assay: soluble on expression in E. coli; label from the status in PepcDB or PDB records

Sequence | soluble on expression in E. coli
MKVIKSNKVTNKFKVSILISTYNKEKFIENTLNNILAQTMNKNDFELIIVDDCSTDNTLDIISKKIESFSNYQFVQLDENSGTPAKPRNLSIDLSKGKYIMFVDGDDWLPSDALENLYTLLKSNKTDYATGLTKYVYSDRIARSGVALSKIAYNKIGLKNFRKSFYHLAPAGRMMKSSVIKKNNIRFPEMIFGEDLQFFAEVFFNTKNISTTQDVVYCANRYDENISLVKSEASTVLNRIKWQNEAYRYLTKKYKNNKIFANLLYRIINKDILEGKFYKKGFIKEIDTLLPVFQDILNTIDNDFNSLDYADDTLNQHALTLIKNGDKEEIIDFVNFYLKKDEKPLYLSNDKYYYVYKENKYKKRMHIILQKIIKKDENIFLKLYSKNSELKYLEIKNRKDPTNYTVLEIKKHLFKTGEYTVQFKANELSKGKLALTVLDKDLNGAAIKSGMQFDFYETVNGNLGYIKKLEHHHHHH | soluble
MKVRVKAPCTSANLGVGFDVFGLCLKEPYDVIEVEAIDDKEIIIEVDDKNIPTDPDKNVAGIVAKKMIDDFNIGKGVKITIKKGVKAGSGLGSSAASSAGTAYAINELFKLNLDKLKLVDYASYGELASSGAKHADNVAPAIFGGFTMVTNYEPLEVLHIPIDFKLDILIAIPNISINTKEAREILPKAVGLKDLVNNVGKACGMVYALYNKDKSLFGRYMMSDKVIEPVRGKLIPNYFKIKEEVKDKVYGITISGSGPSIIAFPKEEFIDEVENILRDYYENTIRTEVGKGVEVV | soluble
MKVVELKNVKKIYPDGTIALKGVSLSVEEGEFLGVMGPSGSGKSTLLHLIGGLDKPSEGIVKVFGKEINHLDEDELAEMRKRKIAYVFQFYYLLEDFSVLENLTLIGELAGIKNPKKKALELLDFLRLSHRINHKPYQLSGGEQQRVAIGRALMVEPKLILADEPTGNLDSKEGFRIFELFKELNEKGITFVVATHNDSLKPFFGRIINLRDGEIVTQR | soluble
MKVVGVTSCIAGLAHTPMAAKALEKAGVKLGHDVKIEQQGAMGTIDEITPAEVSAADVVIIAADKVIDGEDRFKGKPVVRVKIGQCVANGEAVLSKVVAAIEARKQKEAN | not soluble
MKWYTKYLQVYEKPFSEAPQEIVEEVRNKLKLLQSDNPLVTVSLIGYNEEKHLLASLWSLSEMKCKYPIEIIGTDNDSKDQTATIYEATGIPYVIEHQHSCGHARLCGLKRAKGKYHINIDSDTMYPPHYVETMVDALERPGIVAVSSLWSYIPDKEHSWVGLKIYEFIRDIHLWIQSIKRPELSVRGLVFAYRTDYARQVGIRTDIRRGEDGSLALRLKEYGNIYFIRKRKARAITGYGTISADGSLFNSFKVRAIYALKNIGRVFTRKKEYKDEDDNLIKSLEHHHHHH | soluble
MKYSEIFKKRLGCKNTDEVFNYLLSHMKETIKGWDFFVAWEKVMNKVGSVEVVLNILNYLVGKENVVEEFKMLLGRYPEIAEVLPALLALREKSIKVVEPLADNVFNYKEYVFRKKKKYNPEEIEMLAEFAEKTGLLAMFEKKNIKSVVDYAIGVEVGLDTNARKNRSGTAMEMITELFVKKICSMNNYRYLSQATSHKIKTSFGYNVSVDKSERSFDFAIDNGHKLYLVETNYYGGGGSKLKSVAGEFTTLFSFIKKETPEHGFIWITDGKGWETAKKPLRESFDKVDYVLNLDMVQKGILEDIILQGL | soluble
MLAIFQKAFAHPPEELNSPASHFSGKTPKLPGETLSDFLSHHQNNAFSMNFGDSAVLAYARQETSLRQRLFCGLDGIYCMFLGRLNNLCTLNRQYGLSGKNSNEAMFVIEAYRTLRDRGPYPADQVLRGLEGSFAFVVYDTQTSSVFSALSSDGGESLYWGISGDGSVVMSDDIQIIKQGCAKSFAPFPNGCMFHSETGLKSFDHPTNMMKAMPRIDSEGVLCGASFKVDACSKINSIPRRGSEANWALANSR | soluble
MLAKQRFVLDTTAFTDNQLRELLGDGDLNLSVDRMLDLIARSRIKLNISCHMPPITYKEFTDYMTRYDCPEETLIKAETWIVKKTPNRYDTQIPSQIFYEYVHDIRERMNKGLRISETLLWEAGIQSIIMASRDVKKTEIESEVLGKAIKDLRKKYRSALRKGTLDSAPDLDVLLLAKELGAGVVAADDGIRVWAERLGLRFLNATSFPKMLKEYLKYYE | not soluble
MLANQIKYVILHLTQSIIEYSMANLNCIKAVLAEKGIMSKWLAKTLKKDPATVSKWCNNHSQPDLYTLARIAEVLDVDIHKLICHTKEE | not soluble
MLARTIQRFSVVAKRGYAAAAPAANANPEELRLTFASPDTAVFSNAVVKQVDVPTLAGMVGVLANHVPTIGVLKPGVVSVTTNEGTVQRLFVSSGTLSVNIDGSCQVLAEEVLKVEEIDESAARAELDAAQRASGEGSEVARAEAQIRAEVAEALIKAATNQQ | not soluble
MLDKLDRLEEEYRELEALLSDPEVLKDKGRYQSLSRRYAEMGEVIGLIREYRKVLEDLEQAESLLDDPELKEMAKAEREALLARKEALEKELERHLLPKDPMDERDAIVEIRAGTGGEEAALFARDLFNMYLRFAEEMGFETEVLDSHPTDLGGFSKVVFEVRGPGAYGTFKYESGVHRVQRVPVTETQGRIHTSTATVAVLPKAEEEDFALNMDEIRIDVMRASGPGGQGVNTTDSAVRVVHLPTGIMVTCQDSRSQIKNREKALMILRSRLLEMKRAEEAERLRKTRLAQIGTGERSEKIRTYNFPQSRVTDHRIGFTTHDLEGVLSGHLTPILEALKRADQERQLAALAEG | soluble
MLDKTRLRIAMQKSGRLSDESQELLSRCGIKINLQQQRLIAFAENMPIDILRVRDDDIPGLVMDGVVDLGIIGENVLEEELLNRRAQGDDPRYFTLRRLDFGGCRLSLAAPLDAEYTGPQCLQDTRIATSYPHILKQYLDKQGVRFKSCLLNGSVEVAPRAGLADAICDLVSTGATLEANGLREVEVIYRSKACLIQRDGEMSVDKQQLIDRLMTRIQGVIQARESKYIMMHAPSERLDEIITLLPGAERPTILPLAGDKSRVAMHMVSSETLFWETMEKLKALGASSILVLPIEKMME | not soluble
MLDVQHSKFGFTKGCIIAVFLLSLSRTLNRGQLSLDRFKFWQPTSQLLALDMCLCDASALEHHHHHH | not soluble
MLEDLIGKAYLESAEDRRRGDRSEEVEAIRKYIRSARRTVVPNWNAEKVDAINDVLRSFNLREAEHLQFNTNWADLTRMPAVTKALMALDISGADLVIARGRLGVPGSGSLLVIMDSRGRLLSAAMSPPHVIHSMEVREAVRSEMTHALERIGFKR | soluble
MLEEFLPSLIAHTPRQSARLIVADNGSTDDSVEFLRRQYPQVELILFPENYGFAEGYNRAIAQTECDCVVLLNSDVEVSEGWLDAPLALLQERSDVAAVQPKIRALRDKHAFEYAGAAGGYVDRWGYPFCRGRIFDAVETDTGQYDDIAEVFWASGAALFIRRQVYMAVGGLDPRFFAHQEEIDLCWRLHSRGWR | not soluble
MLEEQLYLLACIFASRADTRNIKKLSTRLGSQSKYLEILCVLWPELDDPKNLLFLRELEEEVQSPEGEETTDEDVIVELLESDSSLIPLIESDTTTRSNRYHELQEFISKKLNNKTLENFEEWLRERILICNEMIPETPLLYSVLWETAKSKVLSTKFIGWVEGVLKPLDHLNKRLHLIFKINEWEKMPDSELFKIIFDGVEDMQGYIGIADVIEDELAPTLSYGKKWETFITEFFNKQQFSLKSDTNYQLFIKLYYSLEKGVKDNSEASRKLQSNVVDILFHNSENLFNLSSLTHKLDELWSILSGFPDEITIEEQKTITALEMKQFMEFFIKCSTKFSFKEIFAITQEEESAQLAHFSSLCHEEFNKANEISSFLQAMYETVLDISKDDKIFTRISMDEKLYSILEILLQMNEFAYIEAIIERFDYSNNTQIYELLVKFFWHFFNNASNGLRKEPEMKKASQTLQIIQKHMSQRAGTNLTKLEVLLEISDKLSHYSINLNKSHNGARDTAFKPSNILEYRDCPLDIISNLLELNPRLYKDLPTTKSLLFGIYDSLSINREGQTGKVEVDLMVLHIDYALVNLDFGTAYELGKQVFEICQEAGQHMMKALGDEHWLTFYQMGKFVDPNWVDNEIPTEIIVLQMSILGRLLEVCPLEEVEIVTSQWSTLELELSARDLVKDKYALDGQNDNKSKVGGIAREIFHNVTNF | soluble
MLEFSSEVSLLDSVKNILLEYGLRFQEPQIEKVDKYIEELLGVPYNLTAHRDLDSAVHKNVVEILLPLKEELKGTLLDVGSGNGVPGLILAIFFSKLKVVLLDSREKSVNFLRGVIEKLDLENVSVVKERAENFSKERREEFDYVTARAVARLNVLVEICTPALKTGGKLLFYKGPSYIEELKEAQRAMKELKVELEKVREYSLKTGERRALLILRKYESSPEKYPRRVGVPFKRPLL | soluble
MLENRLYKRSDFWKLFSRKYKLTKTIEHMMIDSIDIQENDRILEIGIGNGTVFKSITKKLKKGSLKSIDPSKRKVRQISRANRKNMGNGEVFHGYPEDIPFDDRTFNKVFSLHTVQSCTDIRLALREIYRVLQIDGRFYISIDTNTGEKEKTYIQLLKDQHFRDLSVIRRASCLCIVAVKLEHHHHHH | soluble
MLEQIRNTHPLVYQNFSALPDGEKHLRSILAIDRYWEKLDLPVPDVILAGSRLPVDACVEEACDILYAGGTLGLLHAAVMSKKYGRKVLVIDRAEPGRTTRDWNISRGELLRLADTGVFTSEELDSTIVRMYKTGWVEFHAPAERRKRLYMDEVLDCAVDADRLLGMACKKVLAGGGSKVLGHTSFVCCYQFPDHLVVQVEELSGKPRYFRTQVLVDAMGIVSPVAMQLNRGRPQTHVCPTVGTIASGFENADFEVGEILASTEDAEVSGKRGRQLIWEGFPAKGDEYITYLFFYDKVDSPNDKSLLGLFEAYFRKLPEYKKPGPNFTIHRPVFGIIPAYFHDGAGCTRVVSGERIALLGDAASLASPLTFCGFGSVVRNLDRMTSGLDRAMREGRLGAAELANISAYEPNVASMATLMKYMCYDPETDEPGFVNEMMNEVMIVLDELPQRYRQAMFRDEMKVEELVTVMLKVAWRYPKILKATWNKLGVGGSVGFVKNLAGWAISQNEKRGLEHHHHHH | not soluble
MLERIANIQKKLSKSIVERKINEVRKVAAVDVSYKEEKARAALVITTFPEGEVLKTKVIETTVSFPYIPTFFFLRETKPILIATKGETFDVLIVEGHGKAHPRGYGLASHIGVVLRKPTIGVAKRLLKNTPKDTYKKVGKVYVSVGNLITLEDATKIIRAILDESGYPKPLKLADKLSKGRIYEVKNTPSPNRSRKKRGNRGKDNNNSQGNLEHHHHHH | soluble
MLFATSGSGSMLQSWNLKTSKRTGSFDAKSSINAVAISPDGNTLATGIRDNAIKLWNINDGKLIHTLTGHQGQVRTVAFSPDGTLLASGSSDGTVKLWNATTGKEINTFTAHKEQVWSVAFNPDGKTLASTGQDGSVKIWGVSPQLEHHHHHH | soluble
MLFERIYEEGLAQASYFIGCQREGKAIVVDARRDIQTYLDLAAKNNMVISAVTETHIHADYLSGTRELAAATGAEIFLSGEGGADWQYGFTGTTLMHNSTIKLGNITITAKHTPGHTPEHLSFLITDGAVSKDPGFMLSGDFVFVGDVGRPDLLDEAAGGVDTRFAGAQQLFHSLKEQFLALPDHIQVYPGHGAGSPCGKALGAIPSTTVGYEKANAWWAPYLRSDDEAGFVEELLDGQPDAHAYFARMKKQNKQGPAVLSTLSPLVKLEAEEVVEKLGSEAVFVDTREQNQVHLGTVVGALNIPRGAKASNFAAWVIDPQKDAQDLIVLAPDANTAADFRDALLRVGIDTVRYFTNSIDGLPTFVPELISPAELAETNYDALIDIRAKSEFAAGSIPGAQQLSGGSAMWRLNELPAGGTLVTFCQSGARNTVVANALRRAGFTVIELEGSYAAWEKSAANPLEHHHHHH | soluble
